According to patent US20190083616A1 (UNIVERSITY OF TENESSEE RESEARCH FOUNDATION, published 2019):

T1: peptope p66 (p5+14 - SVTVVT linker - 11-1F4 12-mer epitope KHYAAFPENLLI)
T1 construct: also called peptide p66; 11-1F4 peptope
T1 peptide: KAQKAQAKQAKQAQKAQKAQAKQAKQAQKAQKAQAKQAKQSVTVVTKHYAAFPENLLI


Key:
Vκ4Len(1-22) peptide = Vκ4Len(1-22) peptide (UniProt P06312); assay: EuLISA, peptide-coated wells, mAb titrated from 100 nM
[1] = target: T1, peptope p66 (p5+14 - SVTVVT linker - …); assay: EuLISA: rVλ6Wil fibrils on the plate, p66 added and washed, murine 11-1F4 titrated 1:2 from 100 nM; 11-1F4 also binds the fibrils themselves at high concentration (FIG. 10)

EC50 (Vκ4Len(1-22) peptide) | EC50 (read off the curve) [1] | Molecule
0.5 nM | – | murine monoclonal antibody 11-1F4
– | ~0.8 nM | murine monoclonal antibody 11-1F4 (antibody, V domains shown) VH: QVQLKESGPGLVAPSQSLSITCTVSGFSLSSYGVSWVRQPPGKGLEWLGVIWGDGSTNYHPNLMSRLSISKDISKSQVLFKLNSLQTDDTATYYCVTLDYWGQGTSVTVSS VL: DVVMTQTPLSLPVSLGDQASISCRSSQSLVHRNGNTYLHWYLQKPGQSPKLLIYKVSNRFSGVPDRFSGSGSGTDFTLKISRVEAEDLGLYFCFQTTYVPNTFGGGTKLEIK
